The source of these data is the supplement of paper PMC12042874.

± gives the uncertainty stated by the source.

The nature of this series: amyloid nucleation score (Sup35N fusion, yeast selection) (log enrichment); library NNK1; higher = more nucleation; inactive = no reads after selection. Summed up: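 The nucleation score, computed with DiMSum, is the log enrichment of output over input reads, centred on the mode score of non-aggregating sequences. Sequences with under 100 input reads were dropped. Reads were generated by Illumina sequencing of plasmid inserts from psi-negative yeast with Sup35N fused to peptides of 20 random codons, induced with 100 μM copper sulfate for 24 hours and grown 7 days at 30°C on medium lacking adenine and uracil.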
Substance GFVEYYRVLTYDKM returned an amyloid nucleation score of 1.22 ± 0.88.

TYRVVFVAGIHQFNFVPLVR registered an amyloid nucleation score of 0.009 ± 1.1.

For DNSLYE, the amyloid nucleation score was -2.11 ± 2.7.

Turning to TLSKYQS, the amyloid nucleation score came to 0.221 ± 0.53.

The substance LNFIHNGM returned an amyloid nucleation score of -0.444 ± 1.9.

In turn, SFCPSMSNYTCIFPSTNLTY yielded an amyloid nucleation score of 7.033 ± 0.053.

Substance VTRVLLVKWPYNTVETCGGA registered an amyloid nucleation score of -0.317 ± 0.33.

In turn, LVQVIVHFGIYIISAKGQGT gave an amyloid nucleation score of 3.1 ± 0.15.

With QVFGFYTMEKVYHVGGIASV, the amyloid nucleation score is -0.296 ± 0.3.

Regarding AIFGVTPKSVITTYNFTLHM, the amyloid nucleation score was found to be 6.01 ± 0.088.

As for FRVQVTYIFRSLEICDPTVG, the amyloid nucleation score entry is “inactive”.

Substance YNDMVICSTTDGTLSYCRHF yielded an amyloid nucleation score of 0.329 ± 0.26.

Substance SMVTQLRSDNLGHWANSESR showed an amyloid nucleation score of 0.108 ± 0.34.

DSNFVTGWMTSIMLRVGVLR displayed an amyloid nucleation score of 0.514 ± 1.2.

The substance KITWDLF gave an amyloid nucleation score of 0.759 ± 0.52.

WLTVITADSMAEGRQACRLP had an amyloid nucleation score of 0.132 ± 0.46.

The substance DPAHLSGWLLCSP returned an amyloid nucleation score of 0.624 ± 0.45.

Regarding STVNGICSRKLAIRELFSNH, the amyloid nucleation score is -0.063 ± 0.26.

LPFEVRLDCDVVGGG gave an amyloid nucleation score of 0.725 ± 0.48.

The substance SVRCCRFGIGGYWP registered an amyloid nucleation score of -1.07 ± 1.

As for SACFVARSVVCDWGCAGYMF, the amyloid nucleation score was 2.67 ± 0.28.

Substance MLGCFISFTIKLLG registered an amyloid nucleation score of 1.39 ± 0.11.

Substance AYILRWFFTSECRSVQSTSK returned an amyloid nucleation score of -0.105 ± 0.45.

Consider HTTSICVRELPDQEVWTAVN, for which the amyloid nucleation score worked out at 0.109 ± 0.54.

NNIFGLSIYKYCQGRYCNCS had an amyloid nucleation score of 8.226 ± 0.055.

The substance RYYMGTIWILGEFGSLFWMM had an amyloid nucleation score of 0.06 ± 0.39.

For MLYPNNKSVVLVVMELRPNA, the amyloid nucleation score came out at 0.648 ± 0.52.

STNFLWTTFGFFHVCLDGAM yielded an amyloid nucleation score of -0.218 ± 0.92.

QYLFSGLEEMPIVTVLS had an amyloid nucleation score of -0.393 ± 0.31.

For GACLWGT, the amyloid nucleation score worked out at 0.338 ± 0.29.

Turning to MRRHLGHLTLESGNHGCLQA, the amyloid nucleation score result was “inactive”.

Turning to FFIGFIL, the amyloid nucleation score amounted to 1.59 ± 0.21.

The substance SKSGGHASSNG came in with an amyloid nucleation score of 0.649 ± 0.85.

With FMSYFVPSQQYLTASSRQKT, the amyloid nucleation score is -0.544 ± 1.1.

For the substance NSAVYSCL, the amyloid nucleation score entry is “inactive”.

Substance KVVSGA had an amyloid nucleation score of 0.879 ± 0.53.

In turn, IYFQVSRLMSVRRAMKSPKP yielded an amyloid nucleation score of -0.666 ± 1.4.

SVQRAV: the amyloid nucleation score is -0.489 ± 1.7.

As for ILISVSLNMWY, the amyloid nucleation score was found to be 2.43 ± 0.13.

VKSYNGVGTMYLSRIMLYQY had an amyloid nucleation score of 0.163 ± 1.4.

Substance YIKAGLFGCYMVAGGAYNPV registered an amyloid nucleation score of 1.58 ± 0.31.

Take AYSDVYQLFYLKYMFCNWLL: the amyloid nucleation score stood at 2.89 ± 0.26.

In turn, AHPSNSYGRNNGVLASHRWD displayed an amyloid nucleation score of -0.847 ± 0.41.

Consider VSGFGSTYLLCVN, for which the amyloid nucleation score came to 0.589 ± 1.2.

MSLYYPSFDQPITKRVRLFF returned an amyloid nucleation score of -0.82 ± 1.4.

KAHRWDGRIFN came in with an amyloid nucleation score of -1.27 ± 0.55.

For YWICRDTGSYDFCMMGMGKA, the amyloid nucleation score was found to be 0.335 ± 0.34.

On to RSSRAPWRSSCGGMF, for which the amyloid nucleation score was -0.494 ± 0.48.

On to NYVYSSVVGLLIW, for which the amyloid nucleation score is -0.077 ± 0.19.

For DPHYL, the amyloid nucleation score entry was “inactive”.

Regarding QCDVS, the amyloid nucleation score result was “inactive”.

As to SEMGINQKFLLGVQDTLHRY, the amyloid nucleation score is -1.45 ± 1.

Substance ENLVFTY returned an amyloid nucleation score of 0.01 ± 0.28.

SSWFFYQNIAVSYSNKAINF returned an amyloid nucleation score of 0.379 ± 0.17.

The substance GFMICVADTGTANSSYVDVF displayed an amyloid nucleation score of -0.201 ± 0.36.

For LICSSYTNLALILHLWSKRF, the amyloid nucleation score is 0.209 ± 0.26.

On to YGRSP, for which the amyloid nucleation score came to 0.597 ± 0.46.

In turn, NKFGQSAGYLSTFACAVGIG returned an amyloid nucleation score of 0.595 ± 0.39.

For ELLQD, the amyloid nucleation score worked out at 0.038 ± 0.59.

Turning to PHPVVLASLSIDWVPRCSES, the amyloid nucleation score is -0.179 ± 1.

VTIYFILRNGGRVSESLNPW showed an amyloid nucleation score of 7.19 ± 0.084.

Regarding VYGFDRFKVRRMGESLWWS, the amyloid nucleation score result is “inactive”.

With YYNLTSGPFKGGCWQRYF, the amyloid nucleation score was -0.205 ± 0.32.

RSGLCFMCSFEKSVSSR: the amyloid nucleation score came to 0.255 ± 0.3.

Take LPLHAESTGCYGLFSEHFSI: the amyloid nucleation score was -1.27 ± 1.2.

In the case of SNQAHSMLISTIIMILGCYC, the amyloid nucleation score was 0.419 ± 0.34.

For SPSFYFH, the amyloid nucleation score was -0.019 ± 0.98.

Take FIFSAVGRNN: the amyloid nucleation score was -0.411 ± 0.57.

Take SDFRMTGLLTWYRSI: the amyloid nucleation score was -0.228 ± 0.51.

DVQQPPMDSISH registered an amyloid nucleation score of 1.17 ± 0.57.

In the case of VDISVAYRC, the amyloid nucleation score is -1.59 ± 1.3.

VYRVAKASM came in with an amyloid nucleation score of -0.35 ± 1.9.

The substance SPEGSPNEHDYTIPAVRGGP yielded an amyloid nucleation score of 0.775 ± 0.38.

As to GLCMEYTVWWVWSWITLRVD, the amyloid nucleation score is -0.294 ± 0.26.

The substance GTCPSRPVSV yielded an amyloid nucleation score of -0.139 ± 0.47.

For the substance EAPYISFVLIG, the amyloid nucleation score result is “inactive”.

Turning to GRFLHINS, the amyloid nucleation score entry was “inactive”.

CRSSVFKYVPVSNIFDYFSI displayed an amyloid nucleation score of 0.921 ± 0.84.

YYMLGYLDSYLWSENDLWMC came in with an amyloid nucleation score of 0.642 ± 0.36.

The substance RFISCMFFKYIPLQCFVLGR had an amyloid nucleation score of 0.548 ± 0.39.

With RLCIVLSRHMPYTDRMLVMP, the amyloid nucleation score worked out at 0.259 ± 0.26.

SIEDHDYFLIAFY showed an amyloid nucleation score of -0.076 ± 1.6.

In turn, VGNSSGWLTNHLAEKRGQTM gave an amyloid nucleation score of 0.268 ± 1.1.

VMTRNTCVQVGLEGTSQFAG returned an amyloid nucleation score of 0.435 ± 0.26.

Consider KVLGQGYERMDLFIVVFR, for which the amyloid nucleation score is -0.357 ± 0.59.

As for RYYCFPTQLIHLTTT, the amyloid nucleation score is -0.755 ± 0.55.

In the case of KLLPSKLCNASRFSFFYKES, the amyloid nucleation score is -0.82 ± 0.81.

As to FMAGNFSFFLRRNA, the amyloid nucleation score entry is “inactive”.

Turning to YGHLDPFTKLWSLWGIIMNW, the amyloid nucleation score result was “inactive”.

In turn, LVYLA registered an amyloid nucleation score of -0.569 ± 0.87.

On to YRVYRRLSV, for which the amyloid nucleation score came out at 0.526 ± 0.45.

On to HWSSSVSVNGVRYTFMSTSR, for which the amyloid nucleation score was -2.08 ± 2.7.

Regarding WFFRLLAMSRRTEVAGTSPL, the amyloid nucleation score was determined as 0.941 ± 0.65.

Substance CRLGNEKGRLKSWQNRSNIC showed an amyloid nucleation score of -0.22 ± 0.59.

On to MARPLRIHYNYSGSNDLRVR, for which the amyloid nucleation score is -0.444 ± 0.4.

DSPNVVQLLKYTLRYEARLG: the amyloid nucleation score was found to be 0.877 ± 0.16.

ESRKYWVNMVIGQDDRLVHP: the amyloid nucleation score entry is “inactive”.

On to SKRCWGDGMDTFSAIVEAIW, for which the amyloid nucleation score was -0.128 ± 0.54.

In turn, SIIFGVKTFSVFSKIYGLCW returned an amyloid nucleation score of 3.3 ± 0.067.

NSRSLFFYDSYVAGWYN: the amyloid nucleation score amounted to 0.542 ± 0.31.

With LVFVVMYGSRPSLKWWGITC, the amyloid nucleation score turned out to be 0.473 ± 0.79.

Turning to RLLGLHWIT, the amyloid nucleation score was found to be 1.5 ± 0.54.

In turn, YHDVGSAVRMLYQMGPKRVF gave an amyloid nucleation score of -0.442 ± 1.4.

As for GFCFCCRSGYARVIRFEART, the amyloid nucleation score is -0.17 ± 0.48.

For the substance SCDMYQYEIV, the amyloid nucleation score result was “inactive”.

The substance MAVLGALNRSGNMGVGLFYN displayed an amyloid nucleation score of -0.647 ± 0.4.

In the case of FVLGDCCDIFSSYNQIMYIS, the amyloid nucleation score was determined as 3.26 ± 0.12.

In the case of SFNNMANMAYYRVRGVLVL, the amyloid nucleation score was -0.438 ± 0.6.

For the substance SLKFEYCFSPSNVAAVDWGT, the amyloid nucleation score was -0.34 ± 0.98.

RDIRWITQEADGYLELRHSF: the amyloid nucleation score is -0.085 ± 0.73.

GHGYCLSWFNGNDPRGTTTT: the amyloid nucleation score amounted to 1.1 ± 0.7.

In the case of GCFRGPTGLCG, the amyloid nucleation score was -0.271 ± 0.66.

Substance HRRRYAVNFSVEIMIRALG yielded an amyloid nucleation score of -1 ± 1.6.

The substance GFSLSPRAWRTGGVWAECAE had an amyloid nucleation score of 0.7 ± 0.82.

As to RGAQARSQCCMVVMSVESRS, the amyloid nucleation score was 0.628 ± 0.46.

MIKSPTVKGFRMLCSVRGRD: the amyloid nucleation score was -0.284 ± 0.44.

In the case of NYLGLLSEAVSRGVQLGDAT, the amyloid nucleation score entry is “inactive”.

KKRICFMSLSQRWRSRTTCW gave an amyloid nucleation score of 0.164 ± 0.3.

Substance RTSSIMSFPQCSCYSRRGVL showed an amyloid nucleation score of 1.73 ± 0.33.

In the case of YILKGNYLYRRVQLDLRTRR, the amyloid nucleation score is -0.244 ± 0.28.

As for STNACRPVMAQGDHGLSVLR, the amyloid nucleation score is 0.283 ± 0.6.

Turning to GRMNKNYA, the amyloid nucleation score entry was “inactive”.

With DMVEMVHCSCF, the amyloid nucleation score is 1.49 ± 0.21.

As to KNYLLSLGVCNFQSYPHKCW, the amyloid nucleation score was 4.22 ± 0.16.

In turn, VLILVDGSKMAPTALSCYSH gave an amyloid nucleation score of 1.34 ± 0.49.

As for YGHLTAGGCWSGQTNNARLG, the amyloid nucleation score was -0.488 ± 0.9.

As to MRVTFHYFS, the amyloid nucleation score is -0.434 ± 1.7.

As to SWYGVYPFEIGFESGLESTL, the amyloid nucleation score is -0.429 ± 0.41.

As to RLYWWDVMTSNMFVMAFRSR, the amyloid nucleation score result was “inactive”.

The substance LYVLYAIRFLSFCSFWRYLI displayed an amyloid nucleation score of -1.15 ± 0.51.

Take KTCYTVFSRPYENWS: the amyloid nucleation score was 0.625 ± 0.48.

As to NFIQID, the amyloid nucleation score result was “inactive”.

For HLDGSVISNSMVNIVFLSLV, the amyloid nucleation score stood at 5.71 ± 0.072.

Consider KMFTGNSEFFCFLTTVKLDR, for which the amyloid nucleation score is -0.068 ± 0.61.

NYRRQLSFLRLSGQDMLEGK yielded an amyloid nucleation score of 0.184 ± 0.53.

In the case of TVSSLSWDGMPLLPVTLIFS, the amyloid nucleation score is -1.01 ± 1.2.

Turning to WCNNYLSRLCRRVINLEAGL, the amyloid nucleation score was -1.13 ± 1.9.

Substance YLAKISSHDPGIAMMEMTGR came in with an amyloid nucleation score of 0.315 ± 0.35.

On to CYHQFGV, for which the amyloid nucleation score result is “inactive”.

For the substance GRNWLVGCVAQWHWSSLSWS, the amyloid nucleation score was -1.11 ± 2.7.
